US20200317736A1

Molecular target: Multidrug transporter EmrE (Escherichia coli (strain K12)) (Escherichia coli (strain K12)) (UniProt P23895)
Test: cell-based or functional assay

UniProt P23895, sequence (P23895 whole entry): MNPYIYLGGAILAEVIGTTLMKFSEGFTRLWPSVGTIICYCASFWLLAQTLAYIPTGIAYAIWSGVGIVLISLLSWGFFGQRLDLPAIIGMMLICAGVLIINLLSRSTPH

Row | Substance | inhibition of ethidium bromide efflux from E. coli K12 cells (fluorescence decay), peptide 4 uM
1 | I89-A96 (peptide) | 26%
2 | A87-I94 (peptide) | 60%
3 | M92-L99 (peptide) | 68%
